Here are results for 2 substances from EP4349860A1.

What all share (assay): cell-based or functional assay
The target of experiment [1] is SARS-CoV-2 spike protein, Alpha (B.1.1.7) variant, on pseudovirus (SARS-CoV-2 (Alpha variant)).
The target of experiment [2] is SARS-CoV-2 spike protein, Beta (B.1.351) variant, on pseudovirus (SARS-CoV-2 (Beta variant)).
The target in experiment [3] is SARS-CoV-2 spike protein, Delta (B.1.617.2) variant, on pseudovirus (SARS-CoV-2 (Delta variant)).
The target in experiment [4] is SARS-CoV-2 spike protein, Gamma (P.1) variant, on pseudovirus (SARS-CoV-2 (Gamma variant)).
In experiment [5] the target is SARS-CoV-2 spike protein, Omicron BA.2 variant, on pseudovirus (SARS-CoV-2 (Omicron BA.2 variant)).
Experiment [6] has as its target SARS-CoV-2 spike protein, Omicron BA.4/BA.5 variants, on pseudovirus (SARS-CoV-2 (Omicron BA.4/BA.5 variants)).

For S2E12 (antibody), the IC50 (µg/ml), pseudotyped virus neutralization was 0.0004 µg/mL in experiment [1]; < 0.0003 µg/mL in experiment [2]; < 0.0003 µg/mL in experiment [3]; 0.0003 µg/mL in experiment [4]; 0.137 µg/mL in experiment [5]; > 1 µg/mL in experiment [6].
Regarding S309 (antibody), the IC50 (µg/ml), pseudotyped virus neutralization was 0.0347 µg/mL in experiment [1]; 0.0043 µg/mL in experiment [2]; 0.0336 µg/mL in experiment [3]; 0.0083 µg/mL in experiment [4]; 0.416 µg/mL in experiment [5]; 0.142 µg/mL in experiment [6].
